Reference: the nanobody polyreactivity screen of Harvey et al. (2022)

Test: yeast display, Sf9 membrane polyspecificity reagent, FACS + sequencing; frameworks hold sequencing errors
Summary of the method: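 Galactose-induced (36–48 hours) yeast carrying a synthetic nanobody display library were exposed to 10% biotinylated, detergent-solubilized Sf9 membrane reagent at 4 °C for 1 hour. FACS followed streptavidin microbead enrichment, using low and high (top ~1%) gates for expression (anti-HA) and reagent binding (streptavidin). Colony PCR, MiSeq 2 × 250 sequencing and CDR-length filtering followed. Labels for polyreactivity reflect the gate of origin.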

Row | Sequence | polyreactivity (PSR sort gate)
1 | QVQLQESGGGLVQAGGSLRLSCAATGTIFTDRFMGWYRQAPGKERELVAGISPGTSTNYADSVKGRFTISRDNAKNTVYLQMNSLKPEDTAVYYCAADWSTGNTLPYWGQGTQVTVSS | high polyreactivity
2 | QVQLQESGGGLVQAGGSLRLSCASSGSIYDDTYMGWYRQAPGKERELVATIDSGSTTNYADSVKRRITISRDNAKNTVYLQMNSLKPEDTAVYYCAAADSHIDYFDYWGQGTQVTVSS | low polyreactivity
3 | QVQLQESGGGLVQAGGSLRLTCAASGYISYLQSMGLYRQAPVKERELVAGITLGTTTYNADSVKGRFTISPDNVQNTVYLQMNSLKPEYTAVYYCAVAVGHYPEFWYWGQGTQVTMSS | high polyreactivity
4 | QVQLQESGGGLVQAGGSLRMSFAASGNIFDADIMGWYRPAPGKEPELVASITDGRRTNYADSVKGRYTIRRDSEKNTVYLQMNSLKPEDTAVYYCAAIAYPVVPTFVDFDSDYFHWGQGTHVTVSS | high polyreactivity
5 | QVQLQESGGGLVQAGGSLRPRCAAGGTIFVSVNRGWYRHAPGEEREFVASITQGATTNYADSLIGRFTISRDNAKNTVYLQMNCQKPEDTAVYYCAVHESGGITFTYWGQGTQVTVSS | high polyreactivity
6 | QVQLQESGGGLVQAGGSLRPSCAASGSISDGVPMGCYRQAPGEERELVATTVLGATTNYADSVKGRFTISRGNAKNTVYLQMNSLKPEETAVYYCAAPLRYDKGFSYWGQGTQVTVSS | low polyreactivity
7 | QVQLQESGGGLVQAGGSLSLRCSASRNITRSSDLGWYHQAPGKEREFVASITSGGTTYYADSVKGRFTISRDNAKNTVYLEMNSLKPEDTAVYYCAVGDQADAEFGYWGQGTQVTVSS | low polyreactivity
8 | QVQLQESGGGLVQAGGSMRLSCAASGYFSNYYSMGLYRQAPGKERELVAGIGTGTSTYYADSVKGRFTISRDNAKNTVYQQMNSLKPEDTAVYYCAAPLDTSSRIFDYWGQGTQVTVSS | low polyreactivity
9 | QVQLQESGGGLVQAGGSMRLSCAASGYNTIEVTRAGFSRRRAKNANLLPLLITVVLPIKRIAQNTISRDNAKNTVYLQMNSLKPEDTAVYNCAANTIGTDLYEYWGQGTQATVSS | low polyreactivity
10 | QVQLQESGGGLVQAGGSMRLSCAPRGSIYELRPMGWNRQAPGKESELVAGISTGGSTNYADCVIGRFTISRDNAKYSVYLQMNSLKPEDSAVYYCAAASYGEGTYDYWGQGTQVTVRS | high polyreactivity
11 | QVQLQESGGGLVQAGGSPRLSCAASDNIFPDSVMCWYRQAPGNERELVATIGFGATTNYADSVKGRFTISRDNAKNTVYLQMNSLKTEYTAVYYCAADPLNFDYFCYWGQGTQVTVSS | low polyreactivity
12 | QVQLQESGGGLVQAGGSQRLSCAASGYIFYFQYMGWYRKAPGKEREFVAAISDGANTNYADSVKGRFTISRDNAKNTEYLQLNSLKPEDTAVYYCAVYADENYYYIYWGQGTQVNVSS | low polyreactivity
13 | QVQLQESGGGLVQAGGSQRLTCAASVYIFYFQYMGWYRQAPGKEREFVAAMSDGANTNYADSVKGRFTISRDNAKNTESLQMNSLKPEDTAGYYCAVYADENYYYIYGGQGTQVTVSS | low polyreactivity
14 | QVQLQESGGGLVQAGGVLRLSCAASGTISGPHVMGWYRQAPGKEREFVAAINDGANTYYADNVKGRFTISRDNAKNTVYLQMNILKPEDTAVYYCAAVFYGDIGHEYWGQGTQVTVSC | low polyreactivity
15 | QVQLQESGGGLVQAGRSQRLSCAASGYIFYFQYMGWYRQAPGKEREFVAAISDGANTNYADSVKGRFTISRDNAKNSEYLQMNSLKPEDTAVYYCAVYADENYYYIYWGQGTQVTVSS | low polyreactivity
16 | QVQLQESGGGLVQAGVSLRLSCAASGTIFTARFMAWYRQAPGKERELVATITDGGNTNHADSVKGRFSISRDNAKNTVSLQMNSLKPEYAAVYYCAAGEVDNDTLLFWGQGSQVTVSS | low polyreactivity
17 | QVQLQESGGGLVQARGSLRLICAASGNISVTGFMGWYRQAPCKERELVASIGIGGTTYYADSVKGRFSISRDNAKNTVYLQMNSLKPEDTAVYYCAARYLYYAYSYWGQGTQVTVIS | low polyreactivity
18 | QVQLQESGGGLVQARGSLRLSSAASGYISYLDFMGWYGQAPGKERELVAGITTGATTNYADSVKGRFTISRDNAKNIVYQQINSLKQEDTAVYYCARGTEVKSGISYRFYYWGQGTQVTVSS | low polyreactivity
